{
  "source": "patent US20200109188A1",
  "about": "(AstraZeneca / MedImmune, published 2020)",
  "binders": {"B1": {"name": "Antibody 3 (antibody, V domains shown)", "VH": "QVQLQESGPGLVKPSQTLSLTCAISGDSVSSNNAVWNWIRQSPSRGLEWLGRTYYRSKWYNDYAESVKSRITVNPDTSKNQFSLHLKSVTPEDTAVFYCVRSGHITVFGVNVDAFDMWGQGTMVTVSS", "VL": "DIQMTQSPSSLSASVGDRVTITCRTSQSLSSYLHWYQQKPGKAPKLLIYAASSLQSGVPSRFSGSGSGTDFTLTISSLQPEDFATYYCQQSRTFGQGTKVEIK"}},
  "key": {"[1]": {"biological_target": "T1, HA of ca A/swine/Missouri/06 (H2N3) virus (influenza A virus)", "assay": "cell-based or functional assay"}, "[2]": {"biological_target": "T2, HA of H3-LA87 (A/Los Angeles/7/09 (H3N2)) virus (influenza A virus)", "assay": "cell-based or functional assay"}, "[3]": {"biological_target": "HA of A/New Jersey/8/76 (H1N1) virus (influenza A virus)", "assay": "cell-based or functional assay"}, "[4]": {"biological_target": "HA of A/Hong Kong/8/68 (H3N2) virus (influenza A virus)", "assay": "cell-based or functional assay"}, "[5]": {"biological_target": "T3, HA of ca A/New Caledonia/20/99 (H1N1) virus (influenza A virus)", "assay": "cell-based or functional assay"}, "[6]": {"biological_target": "T4, HA of ca A/chicken/Hong Kong/G9/97 (H9N2) virus (influenza A virus)", "assay": "cell-based or functional assay"}, "[7]": {"biological_target": "HA of ca A/Vietnam/1203/04 (H5N1) virus (influenza A virus)", "assay": "cell-based or functional assay"}, "[8]": {"biological_target": "HA of A/Kawasaki/9/86 (H1N1) virus (influenza A virus)", "assay": "cell-based or functional assay"}, "[9]": {"biological_target": "HA subtype H12 (A/duck/Alberta/60/76 (H12N5)) on HEK cells (influenza A virus, UniProt P03446 17-564)", "sequence (P03446 17-564)": "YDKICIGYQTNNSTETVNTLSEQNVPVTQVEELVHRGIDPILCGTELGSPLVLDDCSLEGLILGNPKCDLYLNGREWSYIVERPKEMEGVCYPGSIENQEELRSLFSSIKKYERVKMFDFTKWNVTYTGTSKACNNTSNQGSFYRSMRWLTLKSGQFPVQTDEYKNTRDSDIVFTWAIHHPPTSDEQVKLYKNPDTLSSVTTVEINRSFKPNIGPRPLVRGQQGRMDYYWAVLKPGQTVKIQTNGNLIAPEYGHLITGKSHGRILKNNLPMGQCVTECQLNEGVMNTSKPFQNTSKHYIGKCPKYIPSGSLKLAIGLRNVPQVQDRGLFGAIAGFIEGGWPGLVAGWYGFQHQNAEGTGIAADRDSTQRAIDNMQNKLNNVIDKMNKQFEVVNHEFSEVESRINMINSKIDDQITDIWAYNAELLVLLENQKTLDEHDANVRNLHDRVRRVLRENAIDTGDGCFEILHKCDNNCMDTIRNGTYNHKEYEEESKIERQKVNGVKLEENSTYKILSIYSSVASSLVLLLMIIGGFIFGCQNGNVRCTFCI", "assay": "flow cytometry, HA-transfected HEK cells"}, "[10]": {"biological_target": "HA subtype H10 (A/chicken/Germany/N49 (H10N7)) on HEK cells (influenza A virus, UniProt P12581 17-561)", "sequence (P12581 17-561)": "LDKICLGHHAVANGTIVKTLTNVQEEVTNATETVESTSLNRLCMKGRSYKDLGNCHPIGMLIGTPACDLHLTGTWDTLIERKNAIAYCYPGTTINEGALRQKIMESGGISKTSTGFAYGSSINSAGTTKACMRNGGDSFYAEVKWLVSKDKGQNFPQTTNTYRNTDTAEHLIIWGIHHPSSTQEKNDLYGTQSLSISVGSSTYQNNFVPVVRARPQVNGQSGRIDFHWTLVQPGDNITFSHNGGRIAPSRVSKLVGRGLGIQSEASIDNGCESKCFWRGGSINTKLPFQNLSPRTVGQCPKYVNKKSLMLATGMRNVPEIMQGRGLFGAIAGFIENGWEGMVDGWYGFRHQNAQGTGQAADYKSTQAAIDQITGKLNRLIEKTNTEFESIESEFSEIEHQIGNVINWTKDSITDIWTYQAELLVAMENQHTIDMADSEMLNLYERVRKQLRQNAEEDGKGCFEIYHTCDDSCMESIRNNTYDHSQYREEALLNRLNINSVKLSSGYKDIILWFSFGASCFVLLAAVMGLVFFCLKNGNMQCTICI", "assay": "flow cytometry, HA-transfected HEK cells, 5 ug/ml antibody"}, "[11]": {"biological_target": "HA subtype H4 (A/duck/Czechoslovakia/56 (H4N6)) on HEK cells (influenza A virus, UniProt P19696 17-564)", "sequence (P19696 17-564)": "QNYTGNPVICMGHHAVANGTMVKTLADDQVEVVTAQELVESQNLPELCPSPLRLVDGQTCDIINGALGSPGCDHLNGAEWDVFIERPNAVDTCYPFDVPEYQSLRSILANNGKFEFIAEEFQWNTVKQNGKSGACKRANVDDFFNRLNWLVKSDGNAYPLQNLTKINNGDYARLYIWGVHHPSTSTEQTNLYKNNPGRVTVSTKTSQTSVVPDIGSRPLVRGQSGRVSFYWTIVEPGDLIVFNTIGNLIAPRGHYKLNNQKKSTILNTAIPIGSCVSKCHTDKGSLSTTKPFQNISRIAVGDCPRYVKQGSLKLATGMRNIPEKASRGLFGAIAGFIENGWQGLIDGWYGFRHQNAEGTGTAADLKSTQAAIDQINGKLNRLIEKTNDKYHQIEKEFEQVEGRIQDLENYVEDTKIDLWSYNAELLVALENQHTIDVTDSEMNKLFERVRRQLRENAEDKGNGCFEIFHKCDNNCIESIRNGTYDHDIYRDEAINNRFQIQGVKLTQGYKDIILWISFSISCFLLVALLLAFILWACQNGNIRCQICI", "assay": "flow cytometry, HA-transfected HEK cells, 5 ug/ml antibody"}, "[12]": {"biological_target": "HA subtype H13 (A/gull/Maryland/704/77 (H13N6)) on HEK cells (influenza A virus, UniProt P13103 19-566)", "sequence (P13103 19-566)": "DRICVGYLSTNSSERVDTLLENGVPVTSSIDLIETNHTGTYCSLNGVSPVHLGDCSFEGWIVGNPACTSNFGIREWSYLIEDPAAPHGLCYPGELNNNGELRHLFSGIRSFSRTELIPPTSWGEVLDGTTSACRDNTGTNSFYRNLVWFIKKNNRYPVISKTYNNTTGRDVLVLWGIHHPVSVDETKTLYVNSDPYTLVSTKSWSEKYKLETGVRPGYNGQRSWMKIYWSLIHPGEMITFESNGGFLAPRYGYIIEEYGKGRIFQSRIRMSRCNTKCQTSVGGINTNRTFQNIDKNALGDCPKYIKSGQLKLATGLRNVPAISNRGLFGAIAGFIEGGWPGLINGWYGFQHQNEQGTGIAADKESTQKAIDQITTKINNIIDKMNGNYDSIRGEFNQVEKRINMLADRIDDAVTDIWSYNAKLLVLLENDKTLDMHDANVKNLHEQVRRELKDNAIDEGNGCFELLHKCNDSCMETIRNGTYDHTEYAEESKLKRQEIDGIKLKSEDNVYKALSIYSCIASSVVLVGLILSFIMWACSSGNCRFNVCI", "assay": "flow cytometry, HA-transfected HEK cells, 5 ug/ml antibody"}, "[13]": {"biological_target": "HA subtype H14 (A/mallard/Astrakhan/263/82 (H14N5)) on HEK cells (influenza A virus, UniProt P26136 18-568)", "sequence (P26136 18-568)": "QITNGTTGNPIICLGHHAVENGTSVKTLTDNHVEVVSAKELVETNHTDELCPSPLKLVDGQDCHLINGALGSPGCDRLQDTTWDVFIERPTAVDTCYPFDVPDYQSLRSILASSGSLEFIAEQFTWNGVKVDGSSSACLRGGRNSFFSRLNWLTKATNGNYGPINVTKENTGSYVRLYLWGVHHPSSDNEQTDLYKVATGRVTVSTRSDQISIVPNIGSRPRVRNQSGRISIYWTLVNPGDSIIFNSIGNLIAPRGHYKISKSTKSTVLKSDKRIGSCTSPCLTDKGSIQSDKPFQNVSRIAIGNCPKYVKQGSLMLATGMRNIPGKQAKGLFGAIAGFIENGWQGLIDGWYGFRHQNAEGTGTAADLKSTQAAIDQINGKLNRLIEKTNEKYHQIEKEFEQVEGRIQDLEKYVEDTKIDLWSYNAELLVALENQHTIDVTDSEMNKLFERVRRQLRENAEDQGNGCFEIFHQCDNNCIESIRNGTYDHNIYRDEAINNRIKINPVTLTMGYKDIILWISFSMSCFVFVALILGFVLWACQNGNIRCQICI", "assay": "flow cytometry, HA-transfected HEK cells, 5 ug/ml antibody"}, "[14]": {"biological_target": "HA of A/Wisconsin/67/05 (H3N2) virus (influenza A virus)", "assay": "cell-based or functional assay"}, "[15]": {"biological_target": "HA of ca A/Japan/57 (H2N2) virus (influenza A virus)", "assay": "cell-based or functional assay"}, "[16]": {"biological_target": "T1, HA of ca A/swine/Missouri/06 (H2N3) …", "assay": "cell-based or functional assay", "remark": "listed apart in the source"}, "[17]": {"biological_target": "HA of ca A/teal/Hong Kong/W312/97 (H6N1) virus (influenza A virus)", "assay": "cell-based or functional assay"}, "[18]": {"biological_target": "T2, HA of H3-LA87 (A/Los Angeles/7/09 …)", "assay": "cell-based or functional assay", "remark": "listed apart in the source"}, "[19]": {"biological_target": "HA of ca A/Netherlands/219/03 (H7N7) virus (influenza A virus)", "assay": "cell-based or functional assay"}, "[20]": {"biological_target": "HA of A/Fort Monmouth/1/47 (H1N1) virus (influenza A virus)", "assay": "cell-based or functional assay"}, "[21]": {"biological_target": "HA of A/New Jersey/8/76 (H1N1) virus (influenza A virus)", "assay": "cell-based or functional assay", "remark": "listed apart in the source"}, "[22]": {"biological_target": "HA of ca A/Anhui/1/13 (H7N9) virus (influenza A virus)", "assay": "cell-based or functional assay"}, "[23]": {"biological_target": "HA of A/Hong Kong/8/68 (H3N2) virus (influenza A virus)", "assay": "cell-based or functional assay", "remark": "listed apart in the source"}, "HA of H1-BS10 virus": {"biological_target": "HA of H1-BS10 virus", "assay": "cell-based or functional assay"}, "[24]": {"biological_target": "HA of A/Victoria/361/11 (H3N2) virus (influenza A virus)", "assay": "cell-based or functional assay"}, "[25]": {"biological_target": "T3, HA of ca A/New Caledonia/20/99 (H1N1) …", "assay": "cell-based or functional assay", "remark": "listed apart in the source"}, "[26]": {"biological_target": "HA of ca A/mallard/Alberta/89/85 (H6N2) virus (influenza A virus)", "assay": "cell-based or functional assay"}, "[27]": {"biological_target": "T4, HA of ca A/chicken/Hong Kong/G9/97 …", "assay": "cell-based or functional assay", "remark": "listed apart in the source"}, "[28]": {"biological_target": "HA of ca A/Perth/16/09 (H3N2) virus (influenza A virus)", "assay": "cell-based or functional assay"}, "[29]": {"biological_target": "HA of ca A/Vietnam/1203/04 (H5N1) virus (influenza A virus)", "assay": "cell-based or functional assay", "remark": "listed apart in the source"}, "[30]": {"biological_target": "HA of ca A/Panama/2007/99 (H3N2) virus (influenza A virus)", "assay": "cell-based or functional assay"}, "[31]": {"biological_target": "HA of ca A/Beijing/262/95 (H1N1) virus (influenza A virus)", "assay": "cell-based or functional assay"}, "[32]": {"biological_target": "HA of ca A/Brit. Columbia/CN-6/04 (H7N3-LP) virus (influenza A virus)", "assay": "cell-based or functional assay"}, "[33]": {"biological_target": "HA of ca A/Texas/36/91 (H1N1) virus (influenza A virus)", "assay": "cell-based or functional assay"}, "[34]": {"biological_target": "HA of ca A/Sydney/5/97 (H3N2) virus (influenza A virus)", "assay": "cell-based or functional assay"}, "[35]": {"biological_target": "HA of A/Kawasaki/9/86 (H1N1) virus (influenza A virus)", "assay": "cell-based or functional assay", "remark": "listed apart in the source"}, "[36]": {"biological_target": "HA of A/Victoria/3/75 (H3N2) virus (influenza A virus, UniProt P03435 17-567)", "sequence (P03435 17-567 limits assumed)": "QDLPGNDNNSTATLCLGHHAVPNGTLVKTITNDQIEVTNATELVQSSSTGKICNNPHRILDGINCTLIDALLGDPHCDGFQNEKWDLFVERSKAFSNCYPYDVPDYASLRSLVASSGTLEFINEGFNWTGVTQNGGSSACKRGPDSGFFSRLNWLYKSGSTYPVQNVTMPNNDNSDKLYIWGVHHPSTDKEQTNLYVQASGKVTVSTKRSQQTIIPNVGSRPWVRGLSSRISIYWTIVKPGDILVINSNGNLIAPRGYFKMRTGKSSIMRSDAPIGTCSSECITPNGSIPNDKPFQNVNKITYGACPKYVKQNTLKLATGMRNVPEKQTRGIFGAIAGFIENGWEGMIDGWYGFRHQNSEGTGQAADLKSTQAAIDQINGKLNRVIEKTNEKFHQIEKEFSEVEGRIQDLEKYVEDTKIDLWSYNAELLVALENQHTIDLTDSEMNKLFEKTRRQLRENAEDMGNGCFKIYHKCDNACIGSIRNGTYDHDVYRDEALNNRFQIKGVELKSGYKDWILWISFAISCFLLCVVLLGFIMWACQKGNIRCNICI", "assay": "cell-based or functional assay"}, "[37]": {"biological_target": "HA of ca A/Hong Kong/213/03 (H5N1) virus (influenza A virus)", "assay": "cell-based or functional assay"}},
  "note": "Where two headings read alike, the source gives them in different places.",
  "data": [
    {"binder": "B1", "values": [
      {"measurement": "Neutralization IC50, H2-MO06", "setting": "[1]", "value": 2.27, "unit": "µg/mL"},
      {"measurement": "Neutralization IC50, H3-LA87", "setting": "[2]", "value": 4.19, "unit": "µg/mL"},
      {"measurement": "Neutralization IC50, H1-NJ76", "setting": "[3]", "value": 1.41, "unit": "µg/mL"},
      {"measurement": "Neutralization IC50, H3-HK68", "setting": "[4]", "value": 0.68, "unit": "µg/mL"},
      {"measurement": "Neutralization IC50, H1-Ncal99", "setting": "[5]", "value": 0.79, "unit": "µg/mL"},
      {"measurement": "Neutralization IC50, H9-HK97", "setting": "[6]", "value": 1.79, "unit": "µg/mL"},
      {"measurement": "Neutralization IC50, H5-VM04", "setting": "[7]", "value": 2.11, "unit": "µg/mL"},
      {"measurement": "Neutralization IC50, H1-Kaw86", "setting": "[8]", "value": 0.58, "unit": "µg/mL"},
      {"measurement": "binding result", "setting": "[9]", "value": "no binding (tested: 5 ug/ml)"},
      {"measurement": "binding result", "setting": "[10]", "value": "binds"},
      {"measurement": "binding result", "setting": "[11]", "value": "binds"},
      {"measurement": "binding result", "setting": "[12]", "value": "binds"},
      {"measurement": "binding result", "setting": "[13]", "value": "binds"},
      {"measurement": "Neutralization IC50, H3-Wl05", "setting": "[14]", "value": 2.62, "unit": "µg/mL"},
      {"measurement": "Neutralization IC50, H2-JP57", "setting": "[15]", "value": 0.46, "unit": "µg/mL"},
      {"measurement": "Neutralization IC50, H2-MO06", "setting": "[16]", "value": 1.09, "unit": "µg/mL"},
      {"measurement": "Neutralization IC50, H6-HK97", "setting": "[17]", "value": 0.63, "unit": "µg/mL"},
      {"measurement": "Neutralization IC50, H3-LA87", "setting": "[18]", "value": 2.04, "unit": "µg/mL"},
      {"measurement": "Neutralization IC50, H7-NLD03", "setting": "[19]", "value": 4.74, "unit": "µg/mL"},
      {"measurement": "Neutralization IC50, H1-FM47", "setting": "[20]", "value": 1.04, "unit": "µg/mL"},
      {"measurement": "Neutralization IC50, H1-NJ76", "setting": "[21]", "value": 0.57, "unit": "µg/mL"},
      {"measurement": "Neutralization IC50, H7-ANU13", "setting": "[22]", "value": 4.26, "unit": "µg/mL"},
      {"measurement": "Neutralization IC50, H3-HK68", "setting": "[23]", "value": 1.37, "unit": "µg/mL"},
      {"measurement": "Neutralization IC50, H1-BS10", "setting": "HA of H1-BS10 virus", "value": 2.16, "unit": "µg/mL"},
      {"measurement": "Neutralization IC50, H3-VC11", "setting": "[24]", "value": 3.4, "unit": "µg/mL"},
      {"measurement": "Neutralization IC50, H1-Ncal99", "setting": "[25]", "value": 1.16, "unit": "µg/mL"},
      {"measurement": "Neutralization IC50, H6-AB85", "setting": "[26]", "value": 0.69, "unit": "µg/mL"},
      {"measurement": "Neutralization IC50, H9-HK97", "setting": "[27]", "value": 1.18, "unit": "µg/mL"},
      {"measurement": "Neutralization IC50, H3-Perth09", "setting": "[28]", "value": 1.3, "unit": "µg/mL"},
      {"measurement": "Neutralization IC50, H5-VM04", "setting": "[29]", "value": 1.19, "unit": "µg/mL"},
      {"measurement": "Neutralization IC50, H3-Pa99", "setting": "[30]", "value": 9, "unit": "µg/mL"},
      {"measurement": "Neutralization IC50, H1-BJ95", "setting": "[31]", "value": 2.98, "unit": "µg/mL"},
      {"measurement": "Neutralization IC50, H7-BC04", "setting": "[32]", "value": 2.95, "unit": "µg/mL"},
      {"measurement": "Neutralization IC50, H1-TX91", "setting": "[33]", "value": 0.92, "unit": "µg/mL"},
      {"measurement": "Neutralization IC50, H3-Syd97", "setting": "[34]", "value": 6.5, "unit": "µg/mL"},
      {"measurement": "Neutralization IC50, H1-Kaw86", "setting": "[35]", "value": 1.01, "unit": "µg/mL"},
      {"measurement": "Neutralization IC50, H3-Vic75", "setting": "[36]", "value": 1.12, "unit": "µg/mL"},
      {"measurement": "Neutralization IC50, H5-HK03", "setting": "[37]", "value": 0.71, "unit": "µg/mL"}
    ]}
  ]
}
